# Results as given in the nanobody polyreactivity screen of Harvey et al. (2022).
# Test: yeast display, Sf9 membrane polyspecificity reagent, FACS + sequencing; frameworks hold sequencing errors
# Summary of the method: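 Synthetic nanobody libraries on Saccharomyces cerevisiae BJ5465 were galactose-induced for 36–48 hours, stained 1 hour at 4 °C with 10% biotinylated, detergent-solubilized Sf9 membrane reagent and enriched on streptavidin microbeads. FACS then separated cells into low and high (top ~1%) gates by anti-HA (expression) and streptavidin (reagent binding) fluorescence. Genes were colony-PCR amplified, MiSeq 2 × 250 sequenced and CDR-length filtered. A clone's polyreactivity label is that of its gate of origin.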
row,Sequence,polyreactivity (PSR sort gate)
1,QVQLQESGGGLVQAGGSLGCAASGNISTRSEMGWYRQAPGKEREFVATINSGGITNYADSVKGRFTISRDNAKNTVYLRMNSLKPEDTAVYYRAVYGYFSDPYDYWGQGTQVTVSC,low polyreactivity
2,QVQLQESGGGLVQAGGSLLSCAASGTISYYREMGWYRQAPGKERELVAGIGVGTITYYADSVKGRFTISRDNAKNTVYLHMNSLKPEDTAVYYCAAHIDGNDSHAYWGQGTQVTVSS,low polyreactivity
3,QVQLQESGGGLVQAGGSLRKSCAASGSVSYQEAMGWYRQAPGKERELVATISFGANTNYADSVKGRFTISRDNAKNTVYLQMNSLKPEDTAVYYCAAESLFDDYYGYWGQGTQVTVSS,low polyreactivity
4,QVQLQESGGGLVQAGGSLRLGCAASGNISDAGYMGWYRQAPGKEREFVAAIAAGSNTNYADSVKGRFTISRDNAINTVYLQMNSLKPEVTAVFYCAVASYARVQYEYWGQGTQVTVNS,low polyreactivity
5,QVQLQESGGGLVQAGGSLRLICAASGTIFSARFMGWYRQAPGKERELVATITDGGNTNHADSVKGRFTISRDNAKNTVYLKMYSLKPEDAAVYYCAAGEVDNDTLLFWGQGSQVTVSS,low polyreactivity
6,QVQLQESGGGLVQAGGSLRLPCAASGNISDAGYMGWYRQAPGKQREFVAAIAAGSNTNYADSVKGSFTISRDNAKNTVYLQMNSLKPEDTAVIFFAVASYARVQYEYWGQGTQVTVNS,low polyreactivity
7,QVQLQESGGGLVQAGGSLRLRCAASRNISGSSDLGWYHQAPGKEREFVASITSGGTTYYADSVKGRFTISRDNAKNTVYLQMNSLKPEDTAVYYCAAESRYPFIYEYWGQGTQVTVSS,low polyreactivity
8,QVQLQESGGGLVQAGGSLRLSCAAIGSISILQSMGWYRQAPGKERELVAGINWGATTYYADSVKGRLTTSRDYAKNTVYLQMNSLKPEDTAVYYCAVPTYYTYPLLYWGQGTQVTVSS,low polyreactivity
9,QVQLQESGGGLVQAGGSLRLSCAARASIFKVVDMGLYRQAPAKEREFVATIGEGGNTYYADSVKGRFTISRDNAKNTVYLQMNSLKPEDTAVYFYAVVLGTSYRYTYWGQGTQVTVSS,low polyreactivity
10,QVQLQESGGGLVQAGGSLRLSCAASGLILARNYMGWYRQAPGTERELVSGIGVGASTNYADSVKGRFTISRDNAKNTVYLQMNSLEPEDTAVYYCAVGDTVLGYHYYWGQGTQVTVSN,low polyreactivity
11,QVQLQESGGGLVQAGGSLRLSCAASGNISSYYRMGWYRHAPGKEREFVATIAVGGTTNYADSVKGRFTISRDNAKNTVYLQMNSLKPEDTAVCFCAANCNQYTWFDYWGQGTQVPVSS,low polyreactivity
12,QVQLQESGGGLVQAGGSLRLSCAASGNISVTGFMGWYRKAPGKERELVASIGIGGTTYYADSVKGRFSISRDNAKNTVYLQMNSLKPEDTAVYYCAARYLYYAYSYWGQGTQVTVSS,low polyreactivity
13,QVQLQESGGGLVQAGGSLRLSCAASGNIVDADIMGWYRQAPGKERELVASITDGGSTNYADCVKGRFTISRDNAKNTVYLKMNSLKPEDTAVYYCAAIAYPDIPTYFDYDSEYFYWGQGTQVTVSS,low polyreactivity
14,QVQLQESGGGLVQAGGSLRLSCAASGNIYDADIMGWYRQAPAKERELVTSITDGGSTNYADSVKGRFTISRDNAKNTVYLQMNSLKPEDTAVYYCAAIAYPDIPTSFDYNSDYSYWGQGTQVTVSS,low polyreactivity
15,QVQLQESGGGLVQAGGSLRLSCAASGNIYDADIMGWYRQAPGKERELVTSITDGGSTNYADSVKGRFTISRDNAKNTVYLQMNSLKPEDTAVYYSAAIAYADIPTSFDYNSDYSYWGQGTQVTVSS,low polyreactivity
16,QVQLQESGGGLVQAGGSLRLSCAASGNIYEADIMGWYRQAPGKERELVTSITDGGSTNYADSVKGRFTISRDNAKNTVYLQMNSLKPEDTAVYYCAAIAYPDIPTSFDYNSDYSYWGQGTQVTVSS,low polyreactivity
17,QVQLQESGGGLVQAGGSLRLSCAASGSIFDGFNMGWYRQAPGKEREFVAAISYGASTYYADSVKGRFTVSRDNAKNSVYLQMNILKPEDTAVYYCAVVPSDGNLFSYWGQGTQVTVSS,low polyreactivity
18,QVQLQESGGGLVQAGGSLRLSCAASGSIFDGFNMGWYRQAPGKEREFVAAISYGASTYYADSVKGRFTVSRDNAKNSVYLQMNSLKPEDTAVYYCAVYDELYHVLVYWGRGTQVTVSS,low polyreactivity
19,QVQLQESGGGLVQAGGSLRLSCAASGSIFKGVDMGLYRQAPAKEREFVATIGEGGNTYYADSVKGRFTISRDNAKNTVYLQMNSLKPEDTAVYFYAVVLGTSYRYTYWGQGTQVTVSS,low polyreactivity
20,QVQLQESGGGLVQAGGSLRLSCAASGSIFVSVTMGWYRQAPGKERELVASIGRGSTTNHADSVKGRFTICRDNAKNIVYLLMNSLKPEDTAVYYCAALESYGKYHGYWGQGTQVTVSS,low polyreactivity
21,QVQLQESGGGLVQAGGSLRLSCAASGSIFYWPWMGWYRQAPGREREFVATITTGSNTYYADIMKGHLTISRDNARNTVYLQMKSLKPEDTAVYYCAVVGDGEIEHRYWGQGTQVTVSS,high polyreactivity
22,QVQLQESGGGLVQAGGSLRLSCAASGSISAVGAMGWYRQAPGKEREFAASVNWGTNTNYADSVKGRFTISRDNAKNTLNLQMNSLKPEDTAVYYCAVQPDWETRHDYWGHGTQVTVSS,low polyreactivity

row,Sequence,polyreactivity (PSR sort gate)
1,QVQLQESGGGLVQAGGSLRLSCAASGSISPYYDMGWYRQAPGKEREFVAGISGGAITYYADSVKGRFTISRDNAKNTVYLQMNSLKPEDTAVYYFAADTGVYQYHSYWGQGTQVTVSS,low polyreactivity
2,QVQLQESGGGLVQAGGSLRLSCAASGTIFTARFMGWYRQAPGKERELVATITDGGNTNHADSVKGRFTISRDNAKNTVYLHMNSLKPEDAAVYYCAAGEVDNDTLLYWGQGSQVTVSS,low polyreactivity
3,QVQLQESGGGLVQAGGSLRLSCAASGTISDRAGMGWYRQAPAKNAIVANIDRGTNTNYADSVKGRFTISRDNAKNTVYLQMNSLKPEDTAVYNCAADGRYYIYLDYWGQGTQVTVSS,low polyreactivity
4,QVQLQESGGGLVQAGGSLRLSCAASGTISQEDWKGRYRQAPGKEREFVAAIGLGSNTNYADSLKGRFTISRDNAKNSVYLQMNSLKPEDTAVYYCAVSVWQYSDHVYRGQGTQVTVSS,low polyreactivity
5,QVQLQESGGGLVQAGGSLRLSCAASGTISVAAYMAWYRQAPGKEREYVASIGYGATTYYADSEKGTFTISRDNAKNTVYLQMNSLKPGDTAVYYCAVDRSPQYRYLYYWGQGTQVTVCS,high polyreactivity
6,QVQLQESGGGLVQAGGSLRLSCAASGTITVLYKMGWFRQAPGKEREFVASMNYGTSTYYADSVKGRFTVSRDSAKNTVYLQMNSLKPEDTAVYYCAAAYRWQDVYRYWGQGTQVTVSS,low polyreactivity
7,QVQLQESGGGLVQAGGSLRLSCAASGYIFPRIYMGWYRQAPGKEREFDAGISYDAITNYADSVKGRFTISLDNAKNTVYLQMNSLNPEYTAVYYCAVSYYGTPLVTYWGQGTQVTVSS,high polyreactivity
8,QVQLQESGGGLVQAGGSLRLSCAASGYIFVDYTMGWHRQAPGKERELVATINLGATSYYADSVKGRFTISRDNAKNTVYQQMNSLKPEDTAVYYCAVALQQVNYFPYWCQGTQVTVSS,low polyreactivity
9,QVQLQESGGGLVQAGGSLRLSCAASGYISAGRQMGWYRQAPGKEREFVATINGGATTNYADSVKGRFTISRDNAKNSVYLQMNSLKPEDTAVYYCAAVIWYVQDYTYWGQGAQVTVSS,high polyreactivity
10,QVQLQESGGGLVQAGGSLRLSCAASGYISHADEMGWNRQAPGKEHELVASISNGGSTNYADSVKGRFTISRDNAKNTVYLQMNSLKSEDTGVYYCAAWTGQVDIHYYWGQGTQVPVSS,low polyreactivity
11,QVQLQESGGGLVQAGGSLRLSCAASGYISHADEMGWYRQAPGKEHELVASISNGGSTNYADSVKGRFTISRDNAKNTVYLQMNSLKSEDTAVYYCAAWTGQVDIHYYWGLGTQVTVSS,low polyreactivity
12,QVQLQESGGGLVQAGGSLRLSCAASGYISHADEMGWYRQAPGKEHELVASISNGGSTNYADSVKGRFTISRDNAKNTVYLQRNSLKSEDTAVYYCAAWTGQVDIHYYWGQGTQVTVSS,low polyreactivity
13,QVQLQESGGGLVQAGGSLRLSCAASGYISQSSVMGWYRQAPGKEREFVASISYGATTYYADSVKGRYTISRDNAKDTVYLQTNSPKPEVTAVYYCAVCVKRGFSHRYWGQGTQVTVSS,high polyreactivity
14,QVQLQESGGGLVQAGGSLRLSCAASGYISTFSSEMGWYRQAPGKERELVASIAPGCTTSYADSVKGRFTISRDKAKNTVYLQMNILKPEDTAVYFCAVVYTVPASFGYWGQGTQVTVIS,high polyreactivity
15,QVQLQESGGGLVQAGGSLRLSCAASSNNTTLDVMCWYRQAPGKEREFVASIGSGGITNYADSVKGRFTISRDNAKNTVYLQMNSLKPEDTAVYYCAVLNQAYTDLIYWGQGTQVTVSS,high polyreactivity
16,QVQLQESGGGLVQAGGSLRLSCAATGRTFRYNTMGWYRKATGKERELVARITWSGGSTYYADSVKGRFTISRDNAKNTVYLQMNSLKPEDTAVYYCAAVPILVYRWFQSYTGDYDYWGQGTQVTVSS,low polyreactivity
17,QVQLQESGGGLVQAGGSLRLSCEASGTIFKYYTMGWYRQAPGKEREFVAGINVGSTTNYADIVKGRFTISRDNAKNTVYLQMNSLKPEDTAVYYCAAYFIFLYYHDYWGLGTQVTVSS,low polyreactivity
18,QVQLQESGGGLVQAGGSLRLSCSASGNISVTGVMGWYRQAPGKERELVPSIGIGGTTYYADSVKGRFSISRDNATITVYLQMNSLKPQDTAVYYCAARYLYYAYSYWGQGTQVTVSS,low polyreactivity
19,QVQLQESGGGLVQAGGSLRMSCAASGSISSRDAMGLYRQAPGKEREFVATIASGTTTYYADSVKGSFTISRDNAENTVYLQTNSLKPEDTAVYYCAAPTIQIYPFYYWGQGTQVTVSS,high polyreactivity
20,QVQLQESGGGLVQAGGSLRPSCAASGSLSDGVPMGWYRQAPGEERELVATTVLGATTNYADSVKGRFTISRGNAKNTVYLQMNSLKPEETAVYYCAAPLRYDKGFSYWGQGTQVTVSS,low polyreactivity
21,QVQLQESGGGLVQAGGSLRQSYAASGYIFPSLAMGWYRQAPGKEREFVAAIGRGSTNNYADSLKGRFTISRDNEKNTAYQQMNSLKPEVTAVYYCAADASPLTRHLYWGQGTQVTVSS,low polyreactivity
